Data: PMC5509089

Assays:
[1] = molecular target: His6-tagged integrin α2A domain, wild type (human) (UniProt P17301); assay: ELISA; α2A wt or mutants (10 μg/ml) captured on immobilised mAb JA218 (2.5 μg/ml), TBS/Mg; titrated with RC; bound RC fixed and detected with rabbit RC antiserum; Kd by nonlinear regression
[2] = molecular target: α2A domain D219A mutant (human) (UniProt P17301); assay: as above
[3] = molecular target: α2A domain S214G mutant (human) (UniProt P17301); assay: as above
[4] = molecular target: α2A domain Y216G mutant (human) (UniProt P17301); assay: as above
[5] = molecular target: α2A-L2^α1 mutant (loop 2 of α2A replaced by the loop 2 sequence of the integrin α1 A-domain) (human) (UniProt P17301); assay: as above
[6] = molecular target: His6-tagged integrin α2A domain, wild type (human) (UniProt P17301); assay: ELISA; His-tagged α2A domain (wt or mutant) coated on microtiter wells at 10 μg/ml in TBS/Mg pH 7.4; titrated with RCαβγδ or RCγδ without and with NPS-modified tryptophans in 1% BSA/TBS, 2 mM MgCl2, 1.5 h; bound RC fixed with glutaraldehyde and detected with rabbit RC antiserum, OD 405 nm; Kd by nonlinear regression
[7] = molecular target: disulfide-locked α2A domain, “closed” conformation (C150A, C270A, K168C, A325C) (human) (UniProt P17301); assay: as above
[8] = molecular target: T1, rhodocetin heterotetramer (RCαβγδ); assay: ELISA; settings: chain shown with the change; for percent of parent (% of wild type α2A): read at the highest rhodocetin concentration (about 70 nM), α2A captured by immobilized antibody JA218
T1 chain 1: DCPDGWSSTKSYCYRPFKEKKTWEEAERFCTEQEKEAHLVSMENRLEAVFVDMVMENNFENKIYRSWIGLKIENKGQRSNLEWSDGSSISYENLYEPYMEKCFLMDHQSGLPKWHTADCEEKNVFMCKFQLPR
T1 chain 2: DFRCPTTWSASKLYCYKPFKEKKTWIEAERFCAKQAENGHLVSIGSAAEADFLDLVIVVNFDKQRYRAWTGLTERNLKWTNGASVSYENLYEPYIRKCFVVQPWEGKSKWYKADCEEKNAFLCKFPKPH
T1 chain 3: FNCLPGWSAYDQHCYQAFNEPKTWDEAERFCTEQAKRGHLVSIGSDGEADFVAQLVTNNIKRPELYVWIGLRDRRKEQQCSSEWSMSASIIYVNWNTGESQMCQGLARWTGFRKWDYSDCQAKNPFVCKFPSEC
T1 chain 4: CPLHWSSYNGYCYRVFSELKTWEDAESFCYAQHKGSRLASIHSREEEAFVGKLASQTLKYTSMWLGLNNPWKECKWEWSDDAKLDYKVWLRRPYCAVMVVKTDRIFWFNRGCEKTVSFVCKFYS

Chain of UniProt P17301 (P17301 142-337 Y216G): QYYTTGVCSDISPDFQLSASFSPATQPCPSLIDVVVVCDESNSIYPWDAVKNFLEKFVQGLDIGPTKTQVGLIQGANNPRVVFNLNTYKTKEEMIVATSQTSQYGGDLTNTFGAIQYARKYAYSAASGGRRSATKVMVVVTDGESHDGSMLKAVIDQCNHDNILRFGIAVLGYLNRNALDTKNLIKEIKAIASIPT

In the case of “rhodocetin heterotetramer (RCαβγδ) (complex)”, the Kd [1] is reported as 0.76 nM, the Kd [2] is reported as 5.2 nM and the Kd [3] is reported as 0.77 nM. The Kd [4] was 1.98 nM, the Kd [5] was 2.7 nM and the Kd [6] was 0.29 nM. The Kd [7] was 0.21 nM.

B1: His6-tagged integrin α2A domain, wild type, P17301 C150A; C270A; K168C; E318C (protein)
chain: SLIDVVVVADESNSIYPWDAVKNFLECFVQGLDIGPTKTQVGLIQYANNPRVVFNLNTYKTKEEMIVATSQTSQYGGDLTNTFGAIQYARKYAYSAASGGRRSATKVMVVVTDGESHDGSMLKAVIDQANHDNILRFGIAVLGYLNRNALDTKNLIKEIKAIASIPTERYFFNVSDCAALLEKAGTLGEQIFSIEG
B1 showed a response ([8]; read at the highest RCαβγδ concentration (about 23 nM), α2A immobilized at 10 μg/ml, parent: est. 2.6, read off a plot) of 0.38 OD405nm and a Kd ([8]; α2A immobilized to microtiter plates at 10 μg/ml, titrated with RCαβγδ, OD405) of 2.64 nM.

B2: His6-tagged integrin α2A domain, wild type, P17301 G217K (protein)
chain: SLIDVVVVCDESNSIYPWDAVKNFLEKFVQGLDIGPTKTQVGLIQYANNPRVVFNLNTYKTKEEMIVATSQTSQYKGDLTNTFGAIQYARKYAYSAASGGRRSATKVMVVVTDGESHDGSMLKAVIDQCNHDNILRFGIAVLGYLNRNALDTKNLIKEIKAIASIPTERYFFNVSDEAALLEKAGTLGEQIFSIEG
B2 gave a percent of parent (% of wild type α2A) ([8]; read off a plot) of 11.

B3: His6-tagged integrin α2A domain, wild type, P17301 G218L (protein)
chain: SLIDVVVVCDESNSIYPWDAVKNFLEKFVQGLDIGPTKTQVGLIQYANNPRVVFNLNTYKTKEEMIVATSQTSQYGLDLTNTFGAIQYARKYAYSAASGGRRSATKVMVVVTDGESHDGSMLKAVIDQCNHDNILRFGIAVLGYLNRNALDTKNLIKEIKAIASIPTERYFFNVSDEAALLEKAGTLGEQIFSIEG
In the case of B3, the percent of parent (% of wild type α2A) ([8]; read off a plot) is reported as 12.
